# According to the supplement of paper PMC12042874:
# ± gives the uncertainty stated by the source.
# Test: amyloid nucleation score (Sup35N fusion, yeast selection) (log enrichment); library NNK1; higher = more nucleation; inactive = no reads after selection
# In short: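 Yeast lacking psi expressed peptides of 20 random codons fused to Sup35N, received 100 μM copper sulfate for 24 hours, and were then grown for 7 days at 30°C on medium lacking adenine and uracil. Illumina sequencing of input and output plasmid inserts provided the reads. Nucleation scores are DiMSum log enrichments of output over input, centred on the mode of non-aggregating sequences. Any sequence with under 100 input reads was excluded.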
row,Substance,amyloid nucleation score
1,HCVEVSYKTSYAKELSFRVC,-0.142 ± 1.1
2,HEFNR,-0.936 ± 1.6
3,HEGRS,-1.25 ± 1.2
4,HFFDITLKADNSIILSLSKS,6.549 ± 0.057
5,HFIFEYTSFSS,0.307 ± 0.29
6,HFKRWLVNLFLTEFEKSYGV,-1.28 ± 0.62
7,HFVASDYHNVGSA,inactive
8,HGAFMVPT,0.895 ± 0.79
9,HGTCRC,0.034 ± 0.68
10,HGYHVHDGALLNQHNIS,0.004 ± 0.57
11,HHFAYWCIVWPE,0.728 ± 0.54
12,HHINWPGCVSRNSYKAIYDG,-0.262 ± 0.84
13,HIGYCQSVSTFSR,10.2 ± 0.046
14,HIPNDARRLFGSMGVSRASA,-0.407 ± 1
15,HISMRDFFSHLGRRVVGIMY,-1.1 ± 0.45
16,HKIHAVQLLQVRYLNKRLAG,0.96 ± 0.17
17,HLGAYYTGI,0.984 ± 0.36
18,HLKRRLKFDSGTSYQLVQKV,0.177 ± 1
19,HLNNCLTRRNWTRYFSRVAP,0.95 ± 0.58
20,HLSEFAVGVCEVY,1.27 ± 0.56
21,HLSVFQLDLTREVANCKSWM,3.17 ± 0.11
22,HLSWLRINLPGSPHPPMSLP,3.57 ± 0.11
23,HLWPVVSKGWDGFRCVSQVF,-1.25 ± 2.4
24,HLYDC,inactive
25,HMAAYKVSGVKSGSPEW,-0.145 ± 0.59

row,Substance,amyloid nucleation score
1,HMNSVVMPRWPTLNGELGSR,-0.179 ± 0.4
2,HNELCFMFYSLGNCYGAGVG,5.03 ± 0.095
3,HNFKCHLKSCKVSNFN,-1.02 ± 2.4
4,HNFWLCAVSYQDRVMFLSVF,0.497 ± 0.31
5,HNGHPRTAWVVVQY,0.298 ± 0.28
6,HPFKLGVFNISGESLSTA,-0.802 ± 2.1
7,HPGMTSAASVCWFHGRVLTL,0.494 ± 0.51
8,HPLQMISCNKHIQLANMQFR,0.795 ± 0.37
9,HQIYVLATETNSPMLRWKLQ,0.879 ± 0.98
10,HRCGLPASFIHHFVCDRAVG,-0.686 ± 1.4
11,HRDNH,-0.253 ± 0.35
12,HRIITCPFTSWNH,0.816 ± 0.54
13,HRQGYVWYLLR,1.43 ± 0.24
14,HRRSLRVGLSDIHLLAACAE,-0.897 ± 1.6
15,HRRSTHGMYPVPYCSSINH,0.687 ± 0.48
16,HRSKS,-0.087 ± 0.32
17,HSAGVVDALRCYNFYV,-0.102 ± 0.39
18,HSCVPICNEYSAADRSYFRY,0.343 ± 0.97
19,HSFIYYWC,7.49 ± 0.051
20,HSGMRVPSMAYLVL,-0.259 ± 0.7
21,HSLLVMQDVCPE,0.69 ± 0.56
22,HSNCVDSRCETARTS,1.47 ± 0.47
23,HSPCMPLTCSQTWHSLDLPF,-0.304 ± 0.55
24,HSRYWSNIHSRWLTGRVRWG,-0.28 ± 0.51
25,HSSKYRRFVSTTVTIVSVSR,4.01 ± 0.09

row,Substance,amyloid nucleation score
1,HSWYEELMVVLNISSHGHLD,0.351 ± 0.52
2,HSYTRIE,-0.413 ± 0.24
3,HTEEGKSWFMRGSSVWFRVG,0.341 ± 0.18
4,HTHSGVYC,-0.468 ± 0.5
5,HVFVLLPSKFADLLKKPVLL,-0.894 ± 1.7
6,HVGHCLLLKFQSIWDFWCVC,0.237 ± 0.69
7,HVKACLVVASYP,0.94 ± 0.5
8,HVVAALWCARNFWGVLNVCC,-0.09 ± 0.53
9,HWIMAMFMSPPANTHDEAEI,2.45 ± 0.15
10,HWSMCRTGFWSLYKMDVTQT,0.833 ± 0.7
11,HWTMYLVQLDSDSAIFFGHM,2.52 ± 0.15
12,HWTPC,inactive
13,HYDSMTAL,0.491 ± 0.62
14,HYEVYAARVPNHHAKDIFWV,-0.024 ± 0.93
15,HYIFIRECYCIYLSIAFSQT,0.33 ± 0.36
16,HYSFFE,-0.806 ± 0.8
17,HYWDYAISRIR,-1.94 ± 2.4
18,IAFTVWADWYLPKLGLIREL,0.508 ± 0.74
19,IAHFELMRHNVHLKWVESWL,0.911 ± 0.27
20,IANCQAGWGCRQA,0.315 ± 0.32
21,IAVNSYASVDTYTSLLIRWL,0.993 ± 0.36
22,IAVSFSVVL,5.49 ± 0.056
23,ICDYPIVMRKYPVS,-1.68 ± 1.4
24,ICIDCYQGC,-0.721 ± 1.9
25,ICKDKHAIV,-0.282 ± 0.37

row,Substance,amyloid nucleation score
1,ICNFERILRNMVFAWWYKID,0.621 ± 0.42
2,ICNQCNNSGTQLYCIKLYMR,6.099 ± 0.045
3,ICSIITPRPGFPTVLRSMKK,0.846 ± 0.81
4,ICTEIRRGLHE,1.11 ± 0.71
5,ICVSSGSVIIIVTYFAKCPA,0.484 ± 0.24
6,ICWLC,6.912 ± 0.055
7,ICYTLTMVMAGVEAGGATLV,0.294 ± 0.95
8,IDCIWGLCNWFHSLVMCVHS,inactive
9,IDGLNNYTSYNGTR,-0.219 ± 0.62
10,IDHSNTIFMSQCRRLSVPE,-0.889 ± 1.7
11,IDNMGT,2.4 ± 0.12
12,IDWSVHL,inactive
13,IDWTVDKRSKLMYRGKGSVA,-0.306 ± 0.97
14,IEIGSSF,0.118 ± 0.6
15,IELSILSGRRDL,-0.406 ± 0.2
16,IEQMCTHVNYFGD,-0.548 ± 0.86
17,IEWRVKLRLLRCQYID,-0.507 ± 0.34
18,IFFCWTMFRS,1.28 ± 0.21
19,IFGCRLLYCS,0.402 ± 1.4
20,IFGFVWDPKTNYMTGLFASI,-0.231 ± 0.5
21,IFHGRNYSFSS,-0.422 ± 0.45
22,IFMSRWG,2.78 ± 0.14
23,IFNCVVLFSNTFMGYRFPFH,6.273 ± 0.045
24,IFNSNLLLTATRGDSVIWPY,3.26 ± 0.14
25,IFQPFFAYSGKLVWPFKRDP,4.01 ± 0.081

row,Substance,amyloid nucleation score
1,IFSNQLYVERIVLDENKALL,3.62 ± 0.094
2,IFYLTSVFVFSLLKFMTCER,-1.17 ± 2.4
3,IFYSLFEDTYGGYVLNTAYL,inactive
4,IGAHRNRIWIWYCPVVPNAT,3.1 ± 0.2
5,IGARQLSFLHSIRTREMRVQ,inactive
6,IGDGSFYGLRQRQEARGKRA,-0.437 ± 0.73
7,IGFFPQDSYGFGLRTEINGL,0.145 ± 0.69
8,IGGCLETCCSLGDKLGRRKR,1.07 ± 0.66
9,IGLAICNLLFSTGWGYQPLW,5.75 ± 0.083
10,IGLVCCCSSFEFMRWY,2.49 ± 0.47
11,IGMVSVSC,0.037 ± 1.2
12,IGNPMWCQWSAL,0.721 ± 0.74
13,IGRMIRVCYVVCYEVDMTTS,0.725 ± 0.47
14,IGSFDYGSNLGQIYGHNMLK,-0.685 ± 0.6
15,IGSLGMCLQCYGAGV,0.147 ± 1.2
16,IGSMNCRLLVTWKMVWLVPH,-0.187 ± 0.5
17,IGSVDALKVVDVAMCVPT,2.34 ± 0.54
18,IGTGCSDILRIWRECVNLRG,1.5 ± 0.56
19,IGVSVTPLLLKNKRPVTDVM,1.07 ± 0.84
20,IGVVVWRPNLILRKEYLWRV,-0.858 ± 2.1
21,IGVYSKNAQKGIRRDWCLWN,1.33 ± 0.62
22,IGWFHHFHHATLHRAISVFL,0.633 ± 0.42
23,IGWNFAFVSGILVW,inactive
24,IGYRCIVLS,1.24 ± 0.45
25,IHNFIVSRDRMTGENGSGCM,-0.944 ± 0.41

row,Substance,amyloid nucleation score
1,IHWFVFYFLKKFCYYRSYAR,0.389 ± 0.4
2,IIAIPHLTLSWTNLSMGQG,3.76 ± 0.1
3,IICLVNMDLCKSR,3.9 ± 0.16
4,IIGSIGYVKVSCDQAVRFQL,5.01 ± 0.076
5,IIINGVL,0.029 ± 0.62
6,IILCNRPMSYLRYNGARFLA,0.948 ± 0.36
7,IILGL,0.006 ± 0.73
8,IIRKPGLTRTCHTVLTAASE,0.511 ± 0.91
9,IIRRGSRSFYIFMVTFKRRN,0.996 ± 0.52
10,IISMLFAFIGQSIIVQVVRC,0.316 ± 0.26
11,IISVMTIARGNPVCTHIKYG,0.169 ± 0.29
12,IIVGEFENLYNSAINVK,inactive
13,IKEFLKACNHHEPMPGNLMR,-0.005 ± 0.54
14,IKHFGISTR,0.17 ± 0.79
15,IKISHACATMRQSGGFYVLK,-0.511 ± 0.39
16,IKLFARGGI,0.39 ± 0.59
17,IKMDFTFICIRVRGV,0.343 ± 1.4
18,IKSHNMYYGRRRGVFLGPDR,-0.075 ± 0.44
19,IKTMISQY,-0.406 ± 0.25
20,IKWLGLTSHRWIYTSGLRIL,inactive
21,IKWSGVVASGGDNPLTDHSR,-0.05 ± 0.71
22,IKYFVLAWTSDPLTYVTVTS,0.953 ± 0.46
23,IKYINDITFLVLPYWFI,3.6 ± 0.072
24,ILADIVDATWNFKSSISFLG,1.74 ± 0.16
25,ILATMQFLCQMGSERNQARA,0.454 ± 0.26

row,Substance,amyloid nucleation score
1,ILAWAMGI,0.777 ± 0.78
2,ILCLKTDGLGDESRGVSEAG,0.27 ± 0.75
3,ILEFDDKKVLNLVEGKLLGA,-0.383 ± 1.7
4,ILELYYYASRFLN,0.45 ± 0.57
5,ILFCYLYFMLNNFT,1.07 ± 0.14
6,ILIAKCSLPCYMKRGNAPCL,1.37 ± 0.59
7,ILLMFYRCSKDILLIRSTDF,0.059 ± 0.27
8,ILLYVICQVVTTV,1.64 ± 0.34
9,ILPLLLMWFTYCDDV,2.23 ± 0.6
10,ILRSGNVCYHNTVRWVLSYR,0.225 ± 0.21
11,ILSRVCVRGCIHLPSRMCRS,inactive
12,ILSYVTVDPAKVNYIFREWF,-1.03 ± 0.76
13,ILVYERTYFRNLQWIIRWFS,-0.356 ± 0.22
14,ILYNLGTWFRLC,-0.496 ± 0.61
15,IMPDNDWKSCILIFSRSILF,2.59 ± 0.15
16,IMRRVLAFSCN,-0.538 ± 0.34
17,IMYSQNEGDMYESSFV,-0.551 ± 0.35
18,INDESFWDCIVPNRMKGFSG,0.325 ± 0.42
19,INELNTLLGI,0.498 ± 0.97
20,INFVLMIRMIVSFMNIGRIG,-0.527 ± 1.6
21,INHLKGVSRYSVPVLLGFIA,0.124 ± 0.45
22,INLCAFGLPLVKVLHWLLYL,inactive
23,INLGLVGSRFGSNMERLYGG,0.503 ± 1.1
24,INNSDSCVMLMMNRVFCHGG,6.085 ± 0.048
